Experimental data: the supplement of paper PMC9170038

Test system: MS2 coat protein
Assay: apparent KD of MS2 coat protein; designed switch direction (-1 OFF switch, 1 ON switch): -1; higher = weaker reporter binding
How it was run: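 The buffer was Tris-HCl pH 7.5 with KCl, MgCl2, BSA, DTT, tRNA and Tween-20. In it, SNAP-549-labelled MS2 coat protein was titrated in doubling steps from 0.7 or 1.5 nM to 3 µM over chip-bound RNA switches transcribed by stalled E. coli RNA polymerase on Illumina chips. Apparent KD is the per-design median over clusters of curve fits to normalised fluorescence.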

[1] = input ligand: microRNA oligo, concentration not stated
[2] = Eterna round: R95, input ligand: FMN 200 uM
[3] = Eterna round: R95, input ligand: microRNA oligo, concentration not stated
[4] = Eterna round: R95, input ligand: none

| Sequence | apparent KD of MS2 coat protein (input ligand: FMN 200 uM) [nM] | apparent KD of MS2 coat protein [1] [nM] | apparent KD of MS2 coat protein (input ligand: none) [nM] | apparent KD of MS2 coat protein [2] [nM] | apparent KD of MS2 coat protein [3] [nM] | apparent KD of MS2 coat protein [4] [nM] |
| --- | --- | --- | --- | --- | --- | --- |
| CUGGACCCGGUAGGAUAUAUUGUGGGCGGGCGUGGAACGACAUGAGGAUCACCCAUGUGAUUGAGGUAGAAGGGCCGAGAGGUC [Excl-NG2-LRO19] (Eterna round: R96, puzzle: Exclusion NG 2) | 43.2 | 31.2 | 42.9 | – | – | – |
| CUGGUCCGAGGAUAUAUUAAGUGAUACAUGAGGAUCACCCAUGUAAUUUGAUGGAUAUAAAUAGAAGGCGGACUAG [Mat - Exclusion 5 - JL mod - D43] (puzzle: Exclusion 5) | – | – | – | 59.8 | 37.1 | 43.8 |
| CUGGUCCGAGGAUAUAUUAUGUGAAACAUGAGGAUCACCCAUGUAAUAUGAUGGAUGAAAAUAGAAGGCGGACUAG [Mat - Exclusion 5 - JL mod - D30] (puzzle: Exclusion 5) | – | – | – | 36.2 | 43.5 | 61 |
| CUGGUUGUCGAGGAUAUGCACCAGCUCACUGACGCAGAAGGCGACACAUGAGGAUCACCCAUGUCGGUUCGCGU [salish99_ex6_r004_436] (Eterna round: R97, puzzle: Exclusion 6) | 30.7 | – | 28.2 | – | – | – |
| CUGUUUUUCGCAGGAUAUGCUUCUCCUUUAUUAGCAGAAGGGCGUUAAACAUGAGGAUCACCCAUGUAUGGUAAUGACAUUUUC [JR_ExcNG1_Sub061] (Eterna round: R96, puzzle: Exclusion NG 1) | 98.3 | 18.2 | 24.3 | – | – | – |
| CUUAAGUUAGGAUAUGCGCUACGGAAUCGUGGUUAUAGAUAGCAGAAGGAACUUGAGGAUCACCCAAGUAAAUA [Reerored] (Eterna round: R97, puzzle: Exclusion 4) | 116 | – | 137 | – | – | – |
| CUUAUGUGAGGAUAUGGUGUUGGCCACAGGAAAAAGAUCCUCCAGAAGGCACAUGAGGAUCACCCAUGUAGUGA [Jolly's Folly 30 - Jieux - Exclusion 4] (Eterna round: R96, puzzle: Exclusion 4) | 220 | 54.5 | 57.2 | – | – | – |
| CUUCGACAUGAGGAUCACCCAUGUCAGGAUAUUGUUUAUCUGGUGUUGUCCAGAUAUGCAAGAAGGGAUGUGUG [LRO-Excl1-04] (puzzle: Exclusion 1) | – | – | – | – | 33.8 | – |
| CUUCGUAUAGAGGAUAUAGGUUACCUCGGUAUCCUAGAAGGCUGUACAUGAGGAUCACCCAUGUACUUCAGAUC [Exclusion 6 - B - 13:b] (puzzle: Exclusion 6) | – | – | – | – | 12.7 | – |
| CUUCGUUGCAAGGAUAUGUGAACGAAGAGGGAUACAGAAGGUGCUACAUGAGGAUCACCCAUGUGGGUUGAUUU [Eternabot (L1) Solution 48] (Eterna round: R97, puzzle: Exclusion 6) | 363 | – | 226 | – | – | – |
| CUUCUCUCAUGGAAUCCUGACAUGAGGAUCACCCAUGUUGCUGAGGAUAUCCAGCGCUACGGCGCGGAGAAGGCGGCUCUUAAA [Enties] (Eterna round: R96, puzzle: Exclusion NG 3) | 12.9 | 10 | 17.2 | – | – | – |
| CUUGUACAUGAGGAUCACCCAUGUUAGGAUAUCUCGCCGUCGGCUUGCCGACGGUAUUAGAGAAGGGACAAGGG [JL Tixe mod 7] (puzzle: Exclusion 1) | – | – | – | – | 18.6 | – |
| CUUGUUUAUGUAGGAUAUACAUGAGGAUCACCCAUAGAAGGACAUGAGGAUCACCCAUGUAUUGCGGUCUGCGUUCAGAUCGCA [salish99_ExNG1_r04_101] (Eterna round: R96, puzzle: Exclusion NG 1) | 337 | 298 | 335 | – | – | – |
| CUUGUUUAUGUAGGAUAUGCCUGGCGUGCCUUUGCAGAAGGACAUGAGGAUCACCCAUGUAACAUGAGGCUCACCCAUGUCGCC [salish99_ExNG1_r04_107] (Eterna round: R96, puzzle: Exclusion NG 1) | 142 | 94.8 | 153 | – | – | – |
| CUUGUUUAUGUAGGAUAUGCCUGGCGUGCCUUUGCAGAAGGACAUGAGGAUCACCCAUGUAUUGCGGUCUGCGUUCAGAUCGCC [salish99_ExNG1_r4_042] (Eterna round: R96, puzzle: Exclusion NG 1) | 34.9 | 18.9 | 22 | – | – | – |
| CUUGUUUAUGUGAGGAUAUACUGUUAGUAUAGUUUGUAGAAGGUACAUGAGGAUCACCCAUGUUUAUUACUCUU [JR_BME4_Sub046] (puzzle: Brourd's mod of Exclusion 4) | – | – | – | – | 11.9 | – |
| CUUUAGACAGGAUAUACUUCCGUGGUCGUAGAGUUACACAGACAUGAGGAUCACCCAUGUAGAAGGGUCAAGCU [Eternabot (L2) Solution 94] (Eterna round: R97, puzzle: Exclusion 2) | 76.2 | – | 84.7 | – | – | – |
| CUUUGACAUGAGGAUCACCCAUGUGAGGAUAUGAUGCGAUCGUCGAAAGACGAUAGCAUCAGAAGGCACAUAUG [Fiskers Ex 1 - 7] (puzzle: Exclusion 1) | – | – | – | – | 92.6 | – |

| Sequence | apparent KD of MS2 coat protein (input ligand: FMN 200 uM) [nM] | apparent KD of MS2 coat protein [1] [nM] | apparent KD of MS2 coat protein (input ligand: none) [nM] | apparent KD of MS2 coat protein [2] [nM] | apparent KD of MS2 coat protein [3] [nM] | apparent KD of MS2 coat protein [4] [nM] |
| --- | --- | --- | --- | --- | --- | --- |
| CUUUUAAAGCAACAUCAGCACAUGAGGAUCACCCAUGUGGCGUCCCGACUGUGCACGAUUGCUCGUCUUGACUGUAU [Eternabot (L1) Solution 25] (Eterna round: R97, puzzle: Sensor, turn-off variant 1) | 179 | – | 185 | – | – | – |
| CUUUUGGCAGGAUAUGCUUUUUUUGACAUGAGGAUCACCCAUGUGAUGCAGUUUGGGUUUGCAGAAGGGCCUGAGU [JR_E5_Sub035] (puzzle: Exclusion 5) | – | – | – | – | 101 | – |
| CUUUUGUGAGGAUAUCAGGUGUGCUAGCGUACUGGUACAUCUGAGAAGGCACAUGAGGAUCACCCAUGUUCCUU [JL-ex4-3.18 Brourd mod] (puzzle: Exclusion 4) | – | – | – | – | 13.5 | – |
| CUUUUGUGAGGAUAUCAGUAGUAAAAAAAUAAAAUUACUACUGAGAAGGUACAUGAGGAUCACCCAUGUUCCUC [salish99_ex4_r3_031] (puzzle: Exclusion 4) | – | – | – | – | 15.1 | – |
| CUUUUGUGAGGAUAUCAGUAGUAAAAAAUUAAAAUUACUACUGAGAAGGCACAUGAGGAUCACCCAUGUUCCUC [salish99_ex4_r3_021] (puzzle: Exclusion 4) | – | – | – | – | 37.7 | – |
| CUUUUGUGAGGAUAUCAGUAGUAAUACAAUAGUAUUACUACUGAGAAGGUACAUGAGGAUCACCCAUGUUCCUC [Ex4 344 Omei mod 4] (puzzle: Exclusion 4) | – | – | – | – | 17.9 | – |
| CUUUUGUGAGGAUAUUAGUAGUAAAUAAUUAAAAUUACUACUGAGAAGGCACAUGAGGAUCACCCAUGUUCCUC [salish99_ex4_r3_056] (Eterna round: R96, puzzle: Exclusion 4) | 489 | 33.2 | 37.4 | – | – | – |
| CUUUUGUGAGGAUAUUAGUAGUAAAUAAUUAAAAUUACUACUGAGAAGGCACAUGAGGAUCACCCAUGUUCCUC [salish99_ex4_r3_056] (puzzle: Exclusion 4) | – | – | – | – | 35.2 | – |
| CUUUUGUGAGGAUAUUAGUAGUAAAUGAAUAAAAUUAUUACUGAGAAGGCACAUGAGGAUCACCCAUGUUCCUU [Mat - Exclusion 4 - Eli Mod - D19] (Eterna round: R97, puzzle: Exclusion 4) | 83.6 | – | 14.6 | – | – | – |
| GAAAAGAUAGGAUAUACAAGAAGAAAAGAAAAGAAAAGAAAACAUGAGGAUCACCCAUGUAGAAGGAUCAAAAG [Default title] (puzzle: Exclusion 2) | – | – | – | 15 | 13.5 | 15.5 |
| GAAAAGCAUGUGAGGAUAUGCACACCGGACCGGUGGUAGAAGGCACAUGAGGAUCACCCAUGUGACCAAGAAUA [BmEX4 A.4] (Eterna round: R97, puzzle: Brourd's mod of Exclusion 4) | 19.7 | – | 10.6 | – | – | – |
| GAAAAGGUAGGAUAUACGAAAAAAAAGUGUAGAAAAAAAACACAUGAGGAUCACCCAUGUAGAAGGACCAAAAG [salish99_ex2_r3_069] (puzzle: Exclusion 2) | – | – | – | 27 | 34.8 | 32.6 |
| GAAAAGUGAGGAUAUGGUAAAAGAAGAAGAAGAAGAAAACUCCAGAAGGCACAUGAGGAUCACCCAUGUGAAAG [salish99_ex4_r3_008] (puzzle: Exclusion 4) | – | – | – | 17 | 17.1 | 16.5 |
| GAAACCAGAGGAUAUGCGAAUAAAUAAAACUUUUUUUUUUAACAUGAGGAUCACCCAUGUAGAAGGCUGCAAAU [Ex2 #34] (Eterna round: R97, puzzle: Exclusion 2) | 42.2 | – | 32.7 | – | – | – |
| GAAUAGGCAGGAUAUACAUGAGGAUCACCCAUGUGCAACCGAAAGGAACGUCCGAAAGGUAGAAGGGCCUAAAC [ChP 13.04.2015 #9] (puzzle: Exclusion 3) | – | – | – | 73.7 | 17.9 | 19.6 |
| GAAUAGGUAGGAUAUACGAAAAAAAAGGGUAGAAAAAAAACACAUGAGGAUCACCCAUGUAGAAGGACCAAAAG [salish99_ex2_r3_089] (puzzle: Exclusion 2) | – | – | – | 68.6 | 31.6 | 29.6 |
| GAAUAUAAGCAAAGAUCCUACAUGAGGAUCACCCAUGUGCUCGUCUUAUAAAGUACUAUCACGAAAGUGAUAGUACA [Mat - Sensor v3 - turn-off var 1 - Eli Mod - D82] (puzzle: Sensor v3, turn-off variant 1) | – | – | – | 89.9 | 25.1 | 135 |
